According to article PMC8593620:

B1: RNF128 Iso1 (GRAIL): N48A (protein)
parent chain: MGPPPGAGVSCRGGCGFSRLLAWCFLLALSPQAPGSRGAEAVWTAYLNVSWRVPHTGVNRTVWELSEEGVYGQDSPLEPVAGVLVPPDGPGALNACNPHTNFTVPTVWGSTVQVSWLALIQRGGGCTFADKIHLAYERGASGAVIFNFPGTRNEVIPMSHPGAVDIVAIMIGNLKGTKILQSIQRGIQVTMVIEVGKKHGPWVNHYSIFFVSVSFFIITAATVGYFIFYSARRLRNARAQSRKQRQLKADAKKAIGRLQLRTLKQGDKEIGPDGDSCAVCIELYKPNDLVRILTCNHIFHKTCVDPWLLEHRTCPMCKCDILKALGIEVDVEDGSVSLQVPVSNEISNSASSHEEDNRSETASSGYASVQGTDEPPLEEHVQSTNESLQLVNHEANSVAVDVIPHVDNPTFEEDETPNQETAVREIKS
B2: RNF128 Iso1 (GRAIL): N59A (protein)
parent chain: MGPPPGAGVSCRGGCGFSRLLAWCFLLALSPQAPGSRGAEAVWTAYLNVSWRVPHTGVNRTVWELSEEGVYGQDSPLEPVAGVLVPPDGPGALNACNPHTNFTVPTVWGSTVQVSWLALIQRGGGCTFADKIHLAYERGASGAVIFNFPGTRNEVIPMSHPGAVDIVAIMIGNLKGTKILQSIQRGIQVTMVIEVGKKHGPWVNHYSIFFVSVSFFIITAATVGYFIFYSARRLRNARAQSRKQRQLKADAKKAIGRLQLRTLKQGDKEIGPDGDSCAVCIELYKPNDLVRILTCNHIFHKTCVDPWLLEHRTCPMCKCDILKALGIEVDVEDGSVSLQVPVSNEISNSASSHEEDNRSETASSGYASVQGTDEPPLEEHVQSTNESLQLVNHEANSVAVDVIPHVDNPTFEEDETPNQETAVREIKS
B3: RNF128 Iso1 (GRAIL): N101A (protein)
parent chain: MGPPPGAGVSCRGGCGFSRLLAWCFLLALSPQAPGSRGAEAVWTAYLNVSWRVPHTGVNRTVWELSEEGVYGQDSPLEPVAGVLVPPDGPGALNACNPHTNFTVPTVWGSTVQVSWLALIQRGGGCTFADKIHLAYERGASGAVIFNFPGTRNEVIPMSHPGAVDIVAIMIGNLKGTKILQSIQRGIQVTMVIEVGKKHGPWVNHYSIFFVSVSFFIITAATVGYFIFYSARRLRNARAQSRKQRQLKADAKKAIGRLQLRTLKQGDKEIGPDGDSCAVCIELYKPNDLVRILTCNHIFHKTCVDPWLLEHRTCPMCKCDILKALGIEVDVEDGSVSLQVPVSNEISNSASSHEEDNRSETASSGYASVQGTDEPPLEEHVQSTNESLQLVNHEANSVAVDVIPHVDNPTFEEDETPNQETAVREIKS
B4: RNF128 Iso1 (GRAIL): 3NA (protein)
parent chain: MGPPPGAGVSCRGGCGFSRLLAWCFLLALSPQAPGSRGAEAVWTAYLNVSWRVPHTGVNRTVWELSEEGVYGQDSPLEPVAGVLVPPDGPGALNACNPHTNFTVPTVWGSTVQVSWLALIQRGGGCTFADKIHLAYERGASGAVIFNFPGTRNEVIPMSHPGAVDIVAIMIGNLKGTKILQSIQRGIQVTMVIEVGKKHGPWVNHYSIFFVSVSFFIITAATVGYFIFYSARRLRNARAQSRKQRQLKADAKKAIGRLQLRTLKQGDKEIGPDGDSCAVCIELYKPNDLVRILTCNHIFHKTCVDPWLLEHRTCPMCKCDILKALGIEVDVEDGSVSLQVPVSNEISNSASSHEEDNRSETASSGYASVQGTDEPPLEEHVQSTNESLQLVNHEANSVAVDVIPHVDNPTFEEDETPNQETAVREIKS

Test: immunoblot of steady-state levels, CpA cells
Conditions: glycan lost; control: wild-type Iso1

expression_or_secretion, decreases:
B1
B2
B3
B4
